B1: ANGPTL3-FLD-biotin (ligand)
chain: RIDQDNSSFDSLSPEPKSRFAMLDDVKILANGLLQLGHGLKDFVHKTKGQINDIFQKLNIFDQSFYDLSLQTSEIKEEEKELRRTTYKLQVKNEEVKNMSLELNSKLESLLEEKILLQQKVKYLEEQLTNLIQNQPETPEHPEVTSLKTFVEKQDNSIKDLLQTVEDQYKQLNQQHSQIKEIENQLRRTSIQEPTEISLSSKPRAPRTTPFLQLNEIRNVKHDGIPAECTTIYNRGEHTSGMYAIRPSNSQVFHVYCDVISGSPWTLIQHRIDGSQNFNETWENYKYGFGRLDGEFWLGLEKIYSIVKQSNYVLRIELEDWKDNKHYIEYSFYLGNHETNYTLHLVAITGNVPNAIPENKDLVFSTWDHKAKGHFNCPEGYSGGWWWHDECGENNLNGKYNKPRAKSKPERRRGLSWKSQNGRLYSIKSTKMLIHPTDSESFEHHHHHHHHHH
modifications: biotin-labeled (sites not given)
notes: also called ANGPTL3-Biotin; Biotin-ANGPTL3-FLD
B2: anti-ANGPTL3 monoclonal antibody (prepared in Example 2) (antibody, IgG1, V domains shown)
VH: QVQLKESGPGLVAPSQSLSITCTVSGFSLTTYGVSWVRQPPGKGLEWLGVIWGDGNTNYHSALISRLSISKDNSKSQVFLKLNSLQTDDTATYYCAKGGPYGNYVPFDYWGQGTTLTVSS
VL: DIVLTQSPASLAVSLGQRATISCRASESVDSYGNSFMHWYQQKPGQPPKLLIYRASNLESGIPARFSGSGSRTDFTLTINPVEADDVATYYCQQSDEEPPTFGGGTNLEIK
notes: Recombinant antibody expressed transiently in ExpiCHO-S cells; also called anti-ANGPTL3-FLD mAb; mAb

How the values were obtained:
[1] = biological target: human ANGPTL3 protein (SEQ ID No. 19) (human) (UniProt Q9Y5C1); assay: indirect ELISA, negative control supernatant, column A (taken as plate-coated ANGPTL3 of SEQ ID No. 19)
[2] = biological target: T1, Integrin αvβ3 recombinant protein (R&D, 3050-AV-050) (UniProt P06756 31-992; P05106 27-718); assay: ELISA: integrin αvβ3 coated at 1 µg/mL, ANGPTL3-FLD-biotin titrated, detected with peroxidase-labeled streptavidin, OD450
T1 construct: Bought heterodimer
T1 sequence (P06756 31-992, chain 1 of 2): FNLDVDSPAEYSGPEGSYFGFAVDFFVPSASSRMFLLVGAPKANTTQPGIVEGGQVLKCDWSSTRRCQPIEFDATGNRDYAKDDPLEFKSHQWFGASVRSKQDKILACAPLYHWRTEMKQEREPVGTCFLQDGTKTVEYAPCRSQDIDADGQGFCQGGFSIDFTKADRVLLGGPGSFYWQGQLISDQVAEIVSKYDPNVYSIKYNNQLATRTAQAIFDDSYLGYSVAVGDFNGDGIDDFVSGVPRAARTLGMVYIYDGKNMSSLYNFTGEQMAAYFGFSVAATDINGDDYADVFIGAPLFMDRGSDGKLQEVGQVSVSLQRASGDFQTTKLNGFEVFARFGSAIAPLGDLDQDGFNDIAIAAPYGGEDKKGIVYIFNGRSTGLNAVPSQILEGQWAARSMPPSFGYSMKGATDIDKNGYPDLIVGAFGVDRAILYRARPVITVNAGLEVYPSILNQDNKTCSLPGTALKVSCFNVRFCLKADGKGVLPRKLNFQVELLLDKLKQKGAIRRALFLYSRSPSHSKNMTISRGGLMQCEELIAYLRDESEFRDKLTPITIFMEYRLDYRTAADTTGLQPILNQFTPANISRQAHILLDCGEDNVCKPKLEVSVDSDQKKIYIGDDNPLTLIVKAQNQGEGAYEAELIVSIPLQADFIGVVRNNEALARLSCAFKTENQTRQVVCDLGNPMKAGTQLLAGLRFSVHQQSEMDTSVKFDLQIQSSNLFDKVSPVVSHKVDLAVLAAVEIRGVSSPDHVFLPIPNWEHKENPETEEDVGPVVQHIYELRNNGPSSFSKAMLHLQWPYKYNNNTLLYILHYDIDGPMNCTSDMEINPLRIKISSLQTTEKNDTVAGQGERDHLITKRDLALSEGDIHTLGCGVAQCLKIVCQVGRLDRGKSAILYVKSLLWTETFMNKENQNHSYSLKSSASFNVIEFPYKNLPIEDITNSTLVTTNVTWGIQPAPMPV
T1 sequence (P05106 27-718, chain 2 of 2): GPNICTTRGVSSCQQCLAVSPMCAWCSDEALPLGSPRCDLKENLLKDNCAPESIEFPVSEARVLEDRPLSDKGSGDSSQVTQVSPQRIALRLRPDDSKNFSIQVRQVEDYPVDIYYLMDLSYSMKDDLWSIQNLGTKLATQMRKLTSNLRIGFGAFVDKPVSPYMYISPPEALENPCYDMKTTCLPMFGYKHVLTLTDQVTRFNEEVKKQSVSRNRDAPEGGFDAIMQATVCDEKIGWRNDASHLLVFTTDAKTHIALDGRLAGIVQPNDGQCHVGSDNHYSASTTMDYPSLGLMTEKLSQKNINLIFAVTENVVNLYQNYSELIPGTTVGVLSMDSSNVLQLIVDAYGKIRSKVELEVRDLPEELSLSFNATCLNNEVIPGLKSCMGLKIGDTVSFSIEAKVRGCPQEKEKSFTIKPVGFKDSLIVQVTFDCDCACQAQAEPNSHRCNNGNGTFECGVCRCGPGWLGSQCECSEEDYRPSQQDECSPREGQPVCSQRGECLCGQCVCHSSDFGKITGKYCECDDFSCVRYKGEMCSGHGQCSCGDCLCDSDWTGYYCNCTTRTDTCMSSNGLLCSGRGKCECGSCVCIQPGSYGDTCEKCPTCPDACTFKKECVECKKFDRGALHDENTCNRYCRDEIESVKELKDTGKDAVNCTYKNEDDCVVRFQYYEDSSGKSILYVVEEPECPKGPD
Text: (§1) Therefore, in order to evaluate the biological activity of the anti-ANGPTL3 monoclonal antibody, a competitive ELISA experiment was designed to evaluate the activity of the anti-ANGPTL3 monoclonal antibody blocking the interaction between ANGPTL3-FLD and integrin αvβ3. In the competitive experiment of the anti-ANGPTL3 monoclonal antibody blocking the interaction between ANGPTL3-FLD and integrin αvβ3, ANGPTL3-FLD was biotin-labeled, and the lowest saturated concentration of ANGPTL3-FLD-biotin binding to integrin αvβ3 was determined as 0.16 μg/mL by ELISA (as shown in FIG. 3A). The anti-ANGPTL3 monoclonal antibody was serially diluted with 0.16 μg/mL ANGPTL3-FLD-biotin solution as a diluent to obtain a series of concentrations. Theoretically, ANGPTL3-FLD-biotin can saturate integrin αvβ3 on a solid support in the absence of monoclonal antibody. However, when the epitope of ANGPTL3-FLD recognized by the monoclonal antibody overlaps with the epitope of ANGPTL3-FLD binding to integrin αvβ3, the antibody may compete with integrin αvβ3 for binding to ANGPTL3-FLD-biotin, so that ANGPTL3-FLD-biotin cannot bind to integrin αvβ3 on the solid support.
1. Plot a Curve of the Binding of Integrin αvβ3/ANGPTL3 [0093] […]

[3] = biological target: T2, human ANGPTL3 protein (SEQ ID No. 19) (human, UniProt Q9Y5C1 18-460, limits assumed); assay: SPR, Biacore T200, ANGPTL3 amine-coupled on a CM5 chip (852 RU), antibody injected at 6.25-800 nM, 25 °C, HBS-EP
T2 construct: also called ANGPTL3-FLD; protein (immunogen)
T2 sequence: B1 chain
Method: Angptl3 was immobilized on a CM5 sensor chip (Biacore T200, BR18010468 (GE Healthercare)) at 25° C. with HBS-EP as a running buffer (10 mM HEPES, 150 mM NaCl, 3 mM EDTA, 0.05% P20, pH 7.4). Flow cells 1 and 4 were activated on the surface of the sensor chip with fresh and mixed NHS (50 mmol/L) and EDC (200 mmol/L) for 420 s (10 μL/min). Then, Angptl3 diluted in 10 mmol/L NaAC (pH 5.0) waccording tojected into the flow cell 4 to achieve binding of about 852 Response Unit. In addition, Fc1 was set to blank. After the amine coupling reaction, 1 mol/L ethanolamine hydrochloride (pH 8.5) waccording tojected for 420 s to block the remaining active coupling sites on the chip surface.
The detection was carried out at 25° C. with HBS-EP as a running buffer. The anti-ANGPTL3 monoclonal antibody (prepared in Example 2) waccording tojected onto the surfaces of flow cells 1, 2, 3, and 4 as an association stage, and then the running buffer waccording tojected as a dissociation stage.
All data were processed using Biacore T200 evaluation software version 3.1. The flow cell 1 was used as a double reference for the subtractive response unit. For the detection results of the affinity of the anti-ANGPTL3 antibody to the ANGPTL3 protein, refer to FIG. 2.

ANGPTL3-FLD-biotin = biological target: B1; assay: competitive ELISA: antibody titrated in 0.16 µg/mL ANGPTL3-FLD-biotin, blocking its binding to plate-coated integrin αvβ3
Text: as §1, with “Integrin αvβ3 is a key receptor for ANGPTL3-FLD to act on podocytes and mediate podocyte damage. Therefore,” for “Therefore,”
2. Detect a Half-Maximal Inhibitory Concentration of Anti-ANGPTL3-FLD mAb [0098] […]

## Negative Control Supernatant
[1]
  OD 450: 0.195 OD450

## B1
[2]
  EC50 (read off the curve): ~0.01 µg/mL

## B2
[3]
  Kd: 84.8 nM
  koff: 0.00142 s⁻¹
  kon: 16700 M⁻¹ s⁻¹
ANGPTL3-FLD-biotin
  EC50: 1.57 µg/mL
